The chains are these.
B1: Ab7 (antibody, V domains shown)
VH: QVQLVQSGAEVKKPGASVKVSCKASGFTFTRYWMHWVRERPGHGLEWIGNINPNNGGTDFNEKFKNRVTMTVHKSISTAYMELSSLRSDDSAVYYCARGTGTGAMDYWGQGTLVTVSS
VL: DVVMTQSPLSLPVTLGQPASISCRSSQSLVHNNGITYLYWYQQRPGQSPRLLIYRVSNRFSGVPDRFSGSGSGTDFTLKISRVEAEDVGVYYCFQGTHVPRTFGQGTKLEIK
modifications: immunopurified paired helical filament tau, hyperphosphorylated
B2: Ab6 (antibody, V domains shown)
VH: QVQLVESGAEVKKPGASVKVSCKASGFTFTRYWMHWVKERPGHGLEWMGNINPNNGGTDFNEKFKNRVTITVHKSASTAYMELSSLRSEDTAVYYCARGTGTGAMDYWGQGTTVTVSS
VL: DIVMTQSPLSLSVTPGQPASISCRSSQSLVHNNGITYLYWYLQKPGQSPQLLIYRVSNRFSGVPDRFSGSGSGTDFTLKISRVEAEDVGVYYCFQGTHVPRTFGQGTKVEIK
modifications: immunopurified paired helical filament tau, hyperphosphorylated
B3: Ab1 (antibody, V domains shown)
VH: QVQLVQSGAEVKKSGASVKVSCKASGFTFTRYWMHWVRQAPGQGLEWIGNINPNNGGTDFNEKFKNRVTLIRDTSTTTVFIQLTSLTSEDSAVYYCARGTGTGAMDYWGQGTLVTVSS
VL: DIVMTQSPLSLSVTPGQPASISCRSSQSLVHNNGITYLYWYLQKPGQSPQLLIYRVSNRFSGVPDRFSGSGSGTDFTLKISRVEAEDVGVYYCFQGTHVPRTFGQGTKVEIK
modifications: immunopurified paired helical filament tau, hyperphosphorylated
B4: Ab3 (antibody, V domains shown)
VH: EVQLVQSGAEVKKPGSSVKVSCKASGFTFTRYWMHWVKERPGHGLEWIGNINPNNGGTDFNEKFKNRVTMTVHKSITTAYMELSRLTSDDSAVYYCARGTGTGAMDYWGQGTLVSVSS
VL: DVVMTQSPLSLPVTLGQPASISCRSSQSLVHNNGITYLYWYQQRPGQSPRLLIYRVSNRFSGVPDRFSGSGSGTDFTLKISRVEAEDVGVYYCFQGTHVPRTFGQGTKLEIK
modifications: immunopurified paired helical filament tau, hyperphosphorylated
B5: Ab8 (antibody, V domains shown)
VH: QVQLVQSGAEVKKSGASVKVSCKASGFTFTRYWMHWVRQAPGQGLEWIGNINPNNGGTDFNEKFKNRVTLIRDTSTTTVFIQLTSLTSEDSAVYYCARGTGTGAMDYWGQGTLVTVSS
VL: DVVMTQSPLSLPVTLGQPASISCRSSQSLVHNNGITYLYWYQQRPGQSPRLLIYRVSNRFSGVPDRFSGSGSGTDFTLKISRVEAEDVGVYYCFQGTHVPRTFGQGTKLEIK
modifications: immunopurified paired helical filament tau, hyperphosphorylated
B6: Ab10 (antibody, V domains shown)
VH: EVQLVQSGAEVKKPGSSVKVSCKASGFTFTRYWMHWVKERPGHGLEWIGNINPNNGGTDFNEKFKNRVTMTVHKSITTAYMELSRLTSDDSAVYYCARGTGTGAMDYWGQGTLVSVSS
VL: DIVMTQTPLSSPVTLGQPASISCRSSQSLVHNNGITYLYWYQQRPGQPPRLLIYRVSNRFSGVPDRFSGSGAGTDFTLKINRVEAEDVGVYFCFQGTHVPRTFGQGTKLEIK
modifications: immunopurified paired helical filament tau, hyperphosphorylated
B7: Ab2 (antibody, V domains shown)
VH: QVQLVESGAEVKKPGASVKVSCKASGFTFTRYWMHWVKERPGHGLEWMGNINPNNGGTDFNEKFKNRVTITVHKSASTAYMELSSLRSEDTAVYYCARGTGTGAMDYWGQGTTVTVSS
VL: DVVMTQSPLSLPVTLGQPASISCRSSQSLVHNNGITYLYWYQQRPGQSPRLLIYRVSNRFSGVPDRFSGSGSGTDFTLKISRVEAEDVGVYYCFQGTHVPRTFGQGTKLEIK
modifications: immunopurified paired helical filament tau, hyperphosphorylated
B8: Ab9 (antibody, V domains shown)
VH: EVQLVQSGAEVKKPGSSVKVSCKASGFTFTRYWMHWVKERPGHGLEWIGNINPNNGGTDFNEKFKNRVTMTVHKSITTAYMELSRLTSDDSAVYYCARGTGTGAMDYWGQGTLVSVSS
VL: DIVMTQSPLSLSVTPGQPASISCRSSQSLVHNNGITYLYWYLQKPGQSPQLLIYRVSNRFSGVPDRFSGSGSGTDFTLKISRVEAEDVGVYYCFQGTHVPRTFGQGTKVEIK
modifications: immunopurified paired helical filament tau, hyperphosphorylated
B9: Ab11 (antibody, V domains shown)
VH: QVQLVQSGAEVKKPGASVKVSCKASGFTFTRYWMHWVKERPGQGLEWMGNINPNNGGTDFNEKFKNRVTMTVHKSTSTVFIQLSSLRSEDTAVYYCARGTGTGAMDYWGQGTSVTVSS
VL: DVVMTQSPLSLPVTLGQPASISCRSSQSLVHNNGITYLYWYQQRPGQSPRLLIYRVSNRFSGVPDRFSGSGSGTDFTLKISRVEAEDVGVYYCFQGTHVPRTFGQGTKLEIK
modifications: immunopurified paired helical filament tau, hyperphosphorylated
B10: Ab5 (antibody, V domains shown)
VH: QVQLVQSGAEVKKPGASVKVSCKASGFTFTRYWMHWVKERPGQGLEWMGNINPNNGGTDFNEKFKNRVTMTVHKSTSTVFIQLSSLRSEDTAVYYCARGTGTGAMDYWGQGTSVTVSS
VL: DIVMTQTPLSSPVTLGQPASISCRSSQSLVHNNGITYLYWYQQRPGQPPRLLIYRVSNRFSGVPDRFSGSGAGTDFTLKINRVEAEDVGVYFCFQGTHVPRTFGQGTKLEIK
modifications: immunopurified paired helical filament tau, hyperphosphorylated
B11: Ab4 (antibody, V domains shown)
VH: QVQLVQSGAEVKKPGASVKVSCKASGFTFTRYWMHWVKERPGQGLEWMGNINPNNGGTDFNEKFKNRVTMTVHKSTSTVFIQLSSLRSEDTAVYYCARGTGTGAMDYWGQGTSVTVSS
VL: DIVMTQSPLSLSVTPGQPASISCRSSQSLVHNNGITYLYWYLQKPGQSPQLLIYRVSNRFSGVPDRFSGSGSGTDFTLKISRVEAEDVGVYYCFQGTHVPRTFGQGTKVEIK
modifications: immunopurified paired helical filament tau, hyperphosphorylated
B12: hV0022 control (antibody, V domains shown)
VH: QVQLQQPGTELVKPGSSVNLSCKASGFTFTRYWMHWVKERPGHGLEWIGNINPNNGGTDFNEKFKNKATLTVHKSSTTVFIQLSSLTSEDSAVYYCARGTGTGAMDYWGQGTSVTVSS
VL: DVVMTQTPLSLPVSLGDQASISCRSSQSLVHNNGITYLYWYLQKPGQSPKLLIYRVSNRFSGVPDRFGGSGSGTDFTLKISRVEAEDLGVYFCFQGTHVPRTFGGGTKLEIK
modifications: immunopurified paired helical filament tau, hyperphosphorylated
B13: V0022 control (antibody, V domains shown)
VH: QVQLQQPGTELVKPGSSVNLSCKASGFTFTRYWMHWVKERPGHGLEWIGNINPNNGGTDFNEKFKNKATLTVHKSSTTVFIQLSSLTSEDSAVYYCARGTGTGAMDYWGQGTSVTVSS
VL: DVVMTQTPLSLPVSLGDQASISCRSSQSLVHNNGITYLYWYLQKPGQSPKLLIYRVSNRFSGVPDRFGGSGSGTDFTLKISRVEAEDLGVYFCFQGTHVPRTFGGGTKLEIK
modifications: immunopurified paired helical filament tau, hyperphosphorylated
B14: Ab6 (antibody, V domains shown)
VH: QVQLVESGAEVKKPGASVKVSCKASGFTFTRYWMHWVKERPGHGLEWMGNINPNNGGTDFNEKFKNRVTITVHKSASTAYMELSSLRSEDTAVYYCARGTGTGAMDYWGQGTTVTVSS
VL: DIVMTQSPLSLSVTPGQPASISCRSSQSLVHNNGITYLYWYLQKPGQSPQLLIYRVSNRFSGVPDRFSGSGSGTDFTLKISRVEAEDVGVYYCFQGTHVPRTFGQGTKVEIK
modifications: enriched paired helical filament tau, hyperphosphorylated
B15: Ab10 (antibody, V domains shown)
VH: EVQLVQSGAEVKKPGSSVKVSCKASGFTFTRYWMHWVKERPGHGLEWIGNINPNNGGTDFNEKFKNRVTMTVHKSITTAYMELSRLTSDDSAVYYCARGTGTGAMDYWGQGTLVSVSS
VL: DIVMTQTPLSSPVTLGQPASISCRSSQSLVHNNGITYLYWYQQRPGQPPRLLIYRVSNRFSGVPDRFSGSGAGTDFTLKINRVEAEDVGVYFCFQGTHVPRTFGQGTKLEIK
modifications: enriched paired helical filament tau, hyperphosphorylated
B16: Ab2 (antibody, V domains shown)
VH: QVQLVESGAEVKKPGASVKVSCKASGFTFTRYWMHWVKERPGHGLEWMGNINPNNGGTDFNEKFKNRVTITVHKSASTAYMELSSLRSEDTAVYYCARGTGTGAMDYWGQGTTVTVSS
VL: DVVMTQSPLSLPVTLGQPASISCRSSQSLVHNNGITYLYWYQQRPGQSPRLLIYRVSNRFSGVPDRFSGSGSGTDFTLKISRVEAEDVGVYYCFQGTHVPRTFGQGTKLEIK
modifications: enriched paired helical filament tau, hyperphosphorylated
B17: Ab11 (antibody, V domains shown)
VH: QVQLVQSGAEVKKPGASVKVSCKASGFTFTRYWMHWVKERPGQGLEWMGNINPNNGGTDFNEKFKNRVTMTVHKSTSTVFIQLSSLRSEDTAVYYCARGTGTGAMDYWGQGTSVTVSS
VL: DVVMTQSPLSLPVTLGQPASISCRSSQSLVHNNGITYLYWYQQRPGQSPRLLIYRVSNRFSGVPDRFSGSGSGTDFTLKISRVEAEDVGVYYCFQGTHVPRTFGQGTKLEIK
modifications: enriched paired helical filament tau, hyperphosphorylated
B18: Ab9 (antibody, V domains shown)
VH: EVQLVQSGAEVKKPGSSVKVSCKASGFTFTRYWMHWVKERPGHGLEWIGNINPNNGGTDFNEKFKNRVTMTVHKSITTAYMELSRLTSDDSAVYYCARGTGTGAMDYWGQGTLVSVSS
VL: DIVMTQSPLSLSVTPGQPASISCRSSQSLVHNNGITYLYWYLQKPGQSPQLLIYRVSNRFSGVPDRFSGSGSGTDFTLKISRVEAEDVGVYYCFQGTHVPRTFGQGTKVEIK
modifications: enriched paired helical filament tau, hyperphosphorylated
B19: Ab1 (antibody, V domains shown)
VH: QVQLVQSGAEVKKSGASVKVSCKASGFTFTRYWMHWVRQAPGQGLEWIGNINPNNGGTDFNEKFKNRVTLIRDTSTTTVFIQLTSLTSEDSAVYYCARGTGTGAMDYWGQGTLVTVSS
VL: DIVMTQSPLSLSVTPGQPASISCRSSQSLVHNNGITYLYWYLQKPGQSPQLLIYRVSNRFSGVPDRFSGSGSGTDFTLKISRVEAEDVGVYYCFQGTHVPRTFGQGTKVEIK
modifications: enriched paired helical filament tau, hyperphosphorylated
B20: Ab3 (antibody, V domains shown)
VH: EVQLVQSGAEVKKPGSSVKVSCKASGFTFTRYWMHWVKERPGHGLEWIGNINPNNGGTDFNEKFKNRVTMTVHKSITTAYMELSRLTSDDSAVYYCARGTGTGAMDYWGQGTLVSVSS
VL: DVVMTQSPLSLPVTLGQPASISCRSSQSLVHNNGITYLYWYQQRPGQSPRLLIYRVSNRFSGVPDRFSGSGSGTDFTLKISRVEAEDVGVYYCFQGTHVPRTFGQGTKLEIK
modifications: enriched paired helical filament tau, hyperphosphorylated
B21: Ab7 (antibody, V domains shown)
VH: QVQLVQSGAEVKKPGASVKVSCKASGFTFTRYWMHWVRERPGHGLEWIGNINPNNGGTDFNEKFKNRVTMTVHKSISTAYMELSSLRSDDSAVYYCARGTGTGAMDYWGQGTLVTVSS
VL: DVVMTQSPLSLPVTLGQPASISCRSSQSLVHNNGITYLYWYQQRPGQSPRLLIYRVSNRFSGVPDRFSGSGSGTDFTLKISRVEAEDVGVYYCFQGTHVPRTFGQGTKLEIK
modifications: enriched paired helical filament tau, hyperphosphorylated

ePHF, sequence (P10636 2-758): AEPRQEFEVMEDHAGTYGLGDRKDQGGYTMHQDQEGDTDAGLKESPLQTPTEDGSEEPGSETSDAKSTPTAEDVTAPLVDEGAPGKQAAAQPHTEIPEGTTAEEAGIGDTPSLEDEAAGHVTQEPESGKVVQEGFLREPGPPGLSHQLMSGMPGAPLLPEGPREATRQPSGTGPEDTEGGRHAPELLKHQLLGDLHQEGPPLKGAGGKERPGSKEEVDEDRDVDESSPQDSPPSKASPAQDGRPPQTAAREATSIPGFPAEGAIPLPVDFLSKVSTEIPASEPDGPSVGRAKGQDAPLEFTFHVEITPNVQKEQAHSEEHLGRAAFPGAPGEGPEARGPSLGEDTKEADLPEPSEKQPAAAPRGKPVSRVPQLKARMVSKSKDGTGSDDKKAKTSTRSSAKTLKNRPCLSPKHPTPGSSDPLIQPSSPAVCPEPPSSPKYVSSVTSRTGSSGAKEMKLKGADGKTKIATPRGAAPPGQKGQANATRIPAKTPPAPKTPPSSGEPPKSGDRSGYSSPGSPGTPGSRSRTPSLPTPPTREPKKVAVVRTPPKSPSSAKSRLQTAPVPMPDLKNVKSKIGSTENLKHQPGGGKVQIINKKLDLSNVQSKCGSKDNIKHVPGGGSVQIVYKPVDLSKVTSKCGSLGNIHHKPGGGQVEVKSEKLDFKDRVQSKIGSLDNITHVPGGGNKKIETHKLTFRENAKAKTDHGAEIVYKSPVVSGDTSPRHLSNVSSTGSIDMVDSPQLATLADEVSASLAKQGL
iPHF, sequence (P10636 2-758): as above

The first experiment addresses iPHF (human, UniProt P10636). Nature of the experiment: SPR.
With B1, the dissociation constant (Kd) worked out at 0.0334 nM.

In turn, B2 had a dissociation constant Kd of 0.0391 nM. Same read-out and setting: in the case of B3 it was 0.0434 nM; in that of B4, 0.0325 nM. With B5, the Kd worked out at 0.0496 nM. The same measure, in the same setting: with B6 the figure was 0.0304 nM.

B7 registered a Kd of 0.0293 nM. The Kd values of the last two molecules are within 1.5-fold of each other. Still for that read-out and setting: with B8 the figure was 0.044 nM; with B9, 0.0249 nM; with B10, 0.0248 nM. On the same count and under the same terms, with B11 the figure was 0.0353 nM; with B12, 0.0162 nM.

B13 yielded a dissociation constant (Kd) of 0.0165 nM. This Kd and that of the molecule before are within 1.5-fold of each other.

Another experiment has as its target ePHF (human, UniProt P10636). As to the kind of experiment: ELISA.
B14 came in with an EC50 of 0.16 nM. The same measure, in the same setting: with B15 the figure was 0.14 nM; with B16, 0.15 nM. Molecule B17 showed a 50% effective concentration (EC50) of 0.16 nM. Same read-out and setting: in the case of B18 it was 0.1 nM.

The molecule B19 gave an EC50 of 0.085 nM. For B20, the midpoint of the response, the EC50, lay at 0.095 nM. The EC50 values of the last two molecules are within 1.5-fold of each other. The same measure, in the same setting: in the case of B21 it was 0.13 nM.

The values above are taken from US20260356924 (published 2026).
